Bridges are numbered along the chain shown (N, C = ends). Where no end group is shown, it is not given here.
B1: polypeptide DeC-1.1 (peptide)
peptide: CRNSRAAHDSQKC
modifications: disulfide 1-13
B2: polypeptide DeC-1.2 (peptide)
peptide: CRRDRARHYRQRC
modifications: disulfide 1-13

Key:
Experiment in all cases: cell-based or functional assay
mouse TRPM8 channel [1] = biological target: T1, mouse TRPM8 channel (mouse, UniProt Q8R4D5 1-1104)
TRPV2 [2] = biological target: T2, TRPV2
T2 sequence (Q9Y5S1 whole entry, species assumed, looked up): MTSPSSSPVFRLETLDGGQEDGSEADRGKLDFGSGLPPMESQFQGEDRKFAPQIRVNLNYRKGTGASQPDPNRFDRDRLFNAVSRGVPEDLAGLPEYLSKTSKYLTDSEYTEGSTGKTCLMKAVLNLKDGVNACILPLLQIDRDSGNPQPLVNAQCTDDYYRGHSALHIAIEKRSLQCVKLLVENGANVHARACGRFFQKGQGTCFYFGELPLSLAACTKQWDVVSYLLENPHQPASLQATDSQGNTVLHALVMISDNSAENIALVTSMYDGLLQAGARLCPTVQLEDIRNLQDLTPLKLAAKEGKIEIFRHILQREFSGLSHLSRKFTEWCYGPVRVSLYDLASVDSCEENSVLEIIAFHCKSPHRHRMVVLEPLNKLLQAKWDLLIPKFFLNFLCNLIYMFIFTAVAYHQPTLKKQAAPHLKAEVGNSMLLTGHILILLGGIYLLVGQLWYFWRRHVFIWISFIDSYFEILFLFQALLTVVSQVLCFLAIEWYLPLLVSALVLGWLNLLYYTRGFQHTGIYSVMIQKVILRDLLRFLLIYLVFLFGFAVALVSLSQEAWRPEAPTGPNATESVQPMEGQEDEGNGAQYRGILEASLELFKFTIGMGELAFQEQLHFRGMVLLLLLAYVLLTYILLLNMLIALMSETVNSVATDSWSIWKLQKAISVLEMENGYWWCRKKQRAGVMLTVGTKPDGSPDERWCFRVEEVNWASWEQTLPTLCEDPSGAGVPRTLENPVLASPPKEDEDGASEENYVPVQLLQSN

TRPA1 = biological target: TRPA1
Nav1.5 = biological target: Nav1.5
Nav1.7 = biological target: Nav1.7
mouse TRPM8 channel [3] = biological target: T1, mouse TRPM8 channel; remark: listed apart in the source
TRPV1 = biological target: TRPV1
TRPV2 [4] = biological target: T2, TRPV2; remark: listed apart in the source
TRPV3 = biological target: TRPV3
TRPM2 = biological target: TRPM2
TRPM4-K1045A = biological target: TRPM4-K1045A

T1 sequence (Q8R4D5 whole entry): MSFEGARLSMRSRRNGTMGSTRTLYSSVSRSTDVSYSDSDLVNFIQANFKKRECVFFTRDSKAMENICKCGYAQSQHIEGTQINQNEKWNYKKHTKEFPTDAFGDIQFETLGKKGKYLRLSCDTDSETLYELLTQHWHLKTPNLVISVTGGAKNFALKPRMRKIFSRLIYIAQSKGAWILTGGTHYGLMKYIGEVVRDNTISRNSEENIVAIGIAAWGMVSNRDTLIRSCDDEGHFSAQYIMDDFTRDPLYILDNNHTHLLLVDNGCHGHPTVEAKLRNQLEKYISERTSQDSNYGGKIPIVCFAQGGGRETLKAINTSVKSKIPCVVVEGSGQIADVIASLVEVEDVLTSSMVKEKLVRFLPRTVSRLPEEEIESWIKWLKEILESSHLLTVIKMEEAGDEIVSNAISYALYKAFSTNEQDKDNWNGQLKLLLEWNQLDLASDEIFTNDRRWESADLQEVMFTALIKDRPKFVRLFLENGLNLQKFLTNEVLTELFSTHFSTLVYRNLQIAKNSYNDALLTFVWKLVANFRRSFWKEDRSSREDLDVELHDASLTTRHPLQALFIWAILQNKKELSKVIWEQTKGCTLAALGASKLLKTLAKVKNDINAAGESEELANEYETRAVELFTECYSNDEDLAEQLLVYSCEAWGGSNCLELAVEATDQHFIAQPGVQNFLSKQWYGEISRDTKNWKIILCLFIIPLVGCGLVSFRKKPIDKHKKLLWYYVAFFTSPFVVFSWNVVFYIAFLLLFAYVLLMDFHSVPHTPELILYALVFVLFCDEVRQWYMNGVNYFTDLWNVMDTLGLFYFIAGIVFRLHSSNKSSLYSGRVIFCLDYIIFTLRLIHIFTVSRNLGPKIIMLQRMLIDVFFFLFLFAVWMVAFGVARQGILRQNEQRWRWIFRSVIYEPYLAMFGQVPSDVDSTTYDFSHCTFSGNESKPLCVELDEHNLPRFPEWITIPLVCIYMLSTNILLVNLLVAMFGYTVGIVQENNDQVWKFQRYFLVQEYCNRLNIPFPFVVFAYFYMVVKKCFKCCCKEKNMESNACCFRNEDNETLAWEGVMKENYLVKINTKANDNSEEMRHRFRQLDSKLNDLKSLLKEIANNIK
Sequence of TRPA1 (O75762 whole entry): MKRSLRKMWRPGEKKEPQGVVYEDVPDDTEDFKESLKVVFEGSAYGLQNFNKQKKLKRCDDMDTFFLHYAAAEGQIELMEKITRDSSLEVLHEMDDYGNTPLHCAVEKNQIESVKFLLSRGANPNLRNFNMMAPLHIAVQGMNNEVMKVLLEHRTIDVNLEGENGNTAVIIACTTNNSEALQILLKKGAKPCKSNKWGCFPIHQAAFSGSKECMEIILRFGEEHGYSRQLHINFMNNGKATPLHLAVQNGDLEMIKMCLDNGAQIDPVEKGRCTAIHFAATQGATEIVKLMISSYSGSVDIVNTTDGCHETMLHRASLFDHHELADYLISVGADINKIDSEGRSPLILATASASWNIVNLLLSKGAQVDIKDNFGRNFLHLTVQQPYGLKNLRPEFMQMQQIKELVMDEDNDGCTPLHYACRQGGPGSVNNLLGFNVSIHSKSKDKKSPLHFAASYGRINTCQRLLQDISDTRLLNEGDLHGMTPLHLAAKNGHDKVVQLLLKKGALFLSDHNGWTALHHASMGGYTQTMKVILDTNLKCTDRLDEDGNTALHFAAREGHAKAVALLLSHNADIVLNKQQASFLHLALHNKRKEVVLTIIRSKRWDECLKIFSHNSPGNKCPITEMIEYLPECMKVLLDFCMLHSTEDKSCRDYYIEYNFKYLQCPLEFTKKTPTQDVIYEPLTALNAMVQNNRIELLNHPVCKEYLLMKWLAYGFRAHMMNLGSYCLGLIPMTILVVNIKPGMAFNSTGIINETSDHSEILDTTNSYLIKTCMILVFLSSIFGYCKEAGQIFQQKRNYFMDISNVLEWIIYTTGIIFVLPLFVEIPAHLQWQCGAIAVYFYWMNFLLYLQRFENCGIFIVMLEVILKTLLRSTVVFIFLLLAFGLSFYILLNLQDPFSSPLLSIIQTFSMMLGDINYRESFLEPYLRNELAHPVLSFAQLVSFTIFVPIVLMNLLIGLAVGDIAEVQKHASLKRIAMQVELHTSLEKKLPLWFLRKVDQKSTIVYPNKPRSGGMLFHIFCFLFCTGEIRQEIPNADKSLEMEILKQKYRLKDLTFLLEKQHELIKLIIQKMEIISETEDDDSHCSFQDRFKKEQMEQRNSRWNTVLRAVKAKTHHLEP
Sequence of TRPV3 (Q8NET8 whole entry): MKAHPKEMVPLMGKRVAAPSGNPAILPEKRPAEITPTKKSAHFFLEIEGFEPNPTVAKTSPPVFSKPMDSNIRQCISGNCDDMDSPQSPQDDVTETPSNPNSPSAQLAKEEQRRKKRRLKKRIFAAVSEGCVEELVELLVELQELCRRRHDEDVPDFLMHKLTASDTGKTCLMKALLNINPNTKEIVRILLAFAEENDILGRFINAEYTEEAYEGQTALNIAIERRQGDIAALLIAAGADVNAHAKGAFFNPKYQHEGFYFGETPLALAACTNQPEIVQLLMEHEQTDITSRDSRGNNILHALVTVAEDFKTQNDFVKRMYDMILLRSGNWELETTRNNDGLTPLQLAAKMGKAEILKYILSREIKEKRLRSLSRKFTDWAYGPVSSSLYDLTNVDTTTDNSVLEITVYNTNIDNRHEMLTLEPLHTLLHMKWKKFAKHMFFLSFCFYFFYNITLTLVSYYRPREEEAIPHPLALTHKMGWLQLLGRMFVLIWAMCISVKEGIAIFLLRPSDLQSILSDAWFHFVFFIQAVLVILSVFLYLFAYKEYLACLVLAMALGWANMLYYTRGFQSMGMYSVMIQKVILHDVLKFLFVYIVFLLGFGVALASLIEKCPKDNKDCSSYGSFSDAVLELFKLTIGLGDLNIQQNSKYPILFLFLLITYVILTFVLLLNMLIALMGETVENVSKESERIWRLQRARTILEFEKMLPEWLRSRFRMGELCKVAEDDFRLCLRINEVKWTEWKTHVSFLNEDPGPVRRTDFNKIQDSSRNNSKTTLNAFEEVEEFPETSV

Binder | half-inhibitory concentration (IC50), electrophysiology (mouse TRPM8 channel [1]) [µM] | half-inhibitory concentration (IC50), electrophysiology (TRPV2 [2]) [µM] | IC50, inhibition of channel current, electrophysiology (TRPA1) [µM] | IC50, inhibition of sodium channel current, electrophysiology (Nav1.5) [µM] | IC50, inhibition of sodium channel current, electrophysiology (Nav1.7) [µM] | IC50, inhibition of menthol-activated TRPM8 current, whole-cell electrophysiology (mouse TRPM8 channel [3]) [nM] | IC50, inhibition of ligand-activated channel current, electrophysiology (TRPV1) [µM] | IC50, inhibition of ligand-activated channel current, electrophysiology (TRPV2 [4]) [µM] | IC50, inhibition of ligand-activated channel current, electrophysiology (TRPV3) [µM] | IC50, inhibition of ligand-activated channel current, electrophysiology (TRPM2) [µM] | IC50, inhibition of ligand-activated channel current, electrophysiology (TRPM4-K1045A) [µM]
B1 | 133 | – | – | – | – | – | – | – | – | – | –
B2 | – | ~10 | > 100 | > 100 | > 100 | 4.5 | > 100 | > 5 | > 100 | > 100 | > 10
